{"source": "patent US8026342B2", "about": "“Compositions and methods for binding sphingosine-1-phosphate” (Lpath, Inc., priority 2006, dated 2011)", "molecules": {"B1": {"name": "LT1002: murine anti-S1P monoclonal antibody, IgG1 kappa, from hybridoma clone 306D326.26 (antibody, listed as Mus sp., V domains shown)", "VH": "QAHLQQSDAELVKPGASVKISCKVSGFIFIDHTIHWMKQRPEQGLEWIGCISPRHDITKYNEMFRGKATLTADKSSTTAYIQVNSLTFEDSAVYFCARGGFYGSTIWFDFWGQGTTLTVS", "VL": "ETTVTQSPASLSMAIGEKVTIRCITTTDIDDDMNWFQQKPGEPPNLLISEGNILRPGVPSRFSSSGYGTDFLFTIENMLSEDVADYYCLQSDNLPFTFGSGTKLEIK"}}, "key": {"DU145 tumor": {"test_system": "DU145 tumor", "test": "SC DU145 prostate tumor xenograft", "format": "in vivo, nude NCr (nu/nu) mice", "settings": "LT1009 50 mg/kg ip q2d; Avastin 20 mg/kg q4d; Paclitaxel 7.5 mg/kg q1d×5", "method": "Nude mice were implanted sc near the right flank with one fragment per mouse of DU145 tumor from an in vivo passage. All treatments were initiated the day when 60 mice in each experiment established tumors ranging in size from approximately 100 to 200 mm^3. […] Paclitaxel and Avastin were administered iv and ip at a dosage of 7.5 mg/kg/dose and 20 mg/kg/dose, q1d×5 and q4d, respectively, injected in a volume of 0.1 mL/10 g body weight.\nDuring the course of the study tumor growth was monitored by measuring the sc tumors on three axes and calculating the volume. At the end of the study final tumor weights and volumes were determined and then the mice were sacrificed, the tumors harvested. Microvascular densities (MVD) of the tumors were then determined by CD-31 staining."}, "[1]": {"test_system": "Matrigel plug neovascularization", "test": "In vivo Matrigel plug assay for neovascularization (S1P, VEGF, bFGF)", "design": "species or system mice", "method": "Based on in vivo studies showing that S1P increased endothelial capillary growth into subcutaneously implanted Matrigel plugs, we speculated that SPHINGOMAB could reduce de novo BV formation in vivo. To investigate this, we employed the in vivo Matrigel Plug assay for neovascularization. In one set of experiments, Matrigel was supplemented with either 1 μM S1P, 0.5 μg/mL bFGF or 1 μg/mL VEGF and then […]. into mice (n=4). After 10 days, the mice were heparinized and injected with the fluorescent lectin, Isolectin B4-FITC, which binds to adhesion molecules expressed by vascular EC that form the growing BVs. The plugs were then excised, frozen in OCT, sectioned and viewed for FITC-stained BVs.\nSections of the plugs were then stained with hemotoxyln & eosin for evaluation of EC infiltration (FIG. 6B). The infiltration of ECs is a critical step in neo-vascularization. […] Cell infiltration is presumed to be ECs although we recognize that other cell types such as immune cells may also be stained.\nEndogenous S1P from the blood and surrounding tissue could supply a wound with pro-angiogenic stimuli. The ability of SPHINGOMAB to reduce endogenous S1P in a wound was investigated. Optimally stimulated plugs (Matrigel supplemented with 0.5 μg/mL bFGF or […] VEGF) were implanted into mice. Mice received i.p. injections of 25 mg/kg SPHINGOMAB or saline every 48 hrs starting 1 day prior to Matrigel implantation. Each treatment group (Matrigel, Matrigel plus GF or Matrigel plus GF and administered SPHINGOMAB) consisted of a minimum of 6 mice. After 10 days, the mice were treated with heparin, injected with Isolectin B4-FITC, the plugs excised, embedded in OCT freezing medium and sectioned."}, "[2]": {"test_system": "experimental autoimmune encephalomyelitis", "test": "MOG35-55 induced EAE model of multiple sclerosis", "format": "in vivo, C57BL/6J mice", "method": "Experimental protocol—the following experiments were conducted in the laboratory of Dr. Howard Weiner in collaboration with Lpath, Inc. A peptide fragment of myelin oligodendrocyte glycoprotein (MOG35-55; […] (SEQ ID NO: 52)) is used to cause experimental EAE in mice. Mendel, I. et al., A myelin oligodendrocyte glycoprotein peptide induces typical chronic experimental autoimmune encephalomyelitis in H-2b mice: fine specificity and T cell receptor V beta expression of encephalitogenic T cells, Eur J Immunol. 1995 July; 25(7):1951-9. EAE was induced in mice by immunization with a peptide corresponding to amino acids 35-55 of myelin oligodendrocyte glycoprotein (MOG) peptide (MOG35-55) to induce chronic experimental autoimmune encephalomyelitis (EAE). Following immunization with MOG35-55, mice develop an acute episode of EAE that is followed by a gradually developing progressive disease thought to model several features of progressive multiple sclerosis. Mice were treated with antibody to S1P and treated mice were followed to study the effects of S1P-specific antibody on the clinical manifestations of this acute model of EAE. At the end of the experiment, treated mice were also used to analyze the effect of anti-S1P administration on the immune response.\nIn a first set of experiments, using 10 mice per group with an average weight of 20 gr, EAE was induced in C57BL/6J mice with 150 ug/mouse MOG35-55 in CFA along with […] pertussis toxin on days 0 and 2. Anti-S1P antibody LT1002 (Sphingomab™) was administered i.v. at a dosage of 75 mg/Kg on day-1, followed by i.p. dosing at 25 mg/Kg every 2 days. Treated mice were followed for 25 days to study the effects of S1P-specific antibodies on the clinical manifestations of this acute model of EAE. Clinical manifestations of the disease include flaccid tail, and limb paralysis which may be scored to give an objective evaluation of clinical symptoms. The standard evaluation of disease severity in the EAE model measures clinical behavior on a 0-6 scale: 0) normal; 1) flaccid tail; 2) abnormal gait, hind leg weakness; 3) partial paralysis, severe ataxia; 4) minimal hind leg movement after painful stimulus; 5) no hind leg movement; 6) moribund state with little or no movement. Means were compared between groups to determine the effect of treatment on clinical scores and body weight gain. Statistical significance of clinical scores and weight were resolved using biostatistical analysis.\nAt day 17, two representative mice were sacrificed to study the cellular immune response (proliferation and cytokines) and to analyze CNS pathology. Spinal cords were dissected and sectioned. Sections were stained with hematoxylin and eosin (H&E) to reveal inflammatory cells, with Luxol to visualize myelin, or with silver stain to visualize axons. Total levels of CD4+FoxP3+Treg cells were evaluated by FACS analysis of blood samples taken from the tail on day 17. At day 25, treated mice were analyzed to see the effect of anti-S1P administration on the immune response.\nInjection of synthetic MOG peptide (amino acids 35-55 of myelin oligodendrocyte glycoprotein, referred to as MOG35-55) causes mice to develop significant specific T cell responses in addition to neurological symptoms. Spahn et al., (1999) Eur. J. Immunol 29:4060-4071. Anti-S1P administration was associated with a significant decrease in this proliferative recall response to MOG35-55. Mice were primed by injections of MOG peptide. The spleens were removed and homogenized, and splenocytes were pulsed with different amounts of MOG peptide. Subsequently, cells were pulsed with radiolabel and incubated before cells were harvested and label incorporation was assessed by scintillation counting. […] As measured in cpm, the recall proliferative response was decreased by approximately 36%, 38% and 22% after anti-S1P antibody treatment (at 4 ug/ml, 20 ug/ml and 100 ug/ml of MOG35-55, respectively)."}, "[3]": {"settings": "25 mg/kg i.p. every 48 hrs, 10 days"}, "[4]": {"settings": "75 mg/Kg i.v. day -1, then 25 mg/Kg i.p. every 2 days"}}, "data": [{"molecule": "LT1009: humanized anti-S1P IgG1/kappa mAb with Cys to Ala in HCDR2, light chain with 5 backmutations; SEQ ID NO: 31/32", "values": [{"measurement": "% Reduction compared to Vehicle-Treated Mice", "setting": "DU145 tumor", "result": 28, "unit": "%"}, {"measurement": "Final Tumor Weights", "setting": "DU145 tumor", "result": 2242, "unit": "mg"}]}, {"molecule": "B1", "values": [{"measurement": "decrease in neovascularization of VEGF-containing plugs vs saline-treated animals", "setting": "[1]; [3]", "result": 5, "unit": "fold"}, {"measurement": "decrease in neovascularization of bFGF-containing plugs vs saline-treated animals", "setting": "[1]; [3]", "result": 8.5, "unit": "fold"}, {"measurement": "EC infiltration into S1P-containing Matrigel plugs", "setting": "[1]; systemic, every 48 hrs", "result": "reduced amount of EC infiltration"}, {"measurement": "decrease in recall proliferative response to MOG35-55 (cpm)", "setting": "[2]; 4 ug/ml MOG35-55", "result": "approximately 36%"}, {"measurement": "decrease in recall proliferative response to MOG35-55 (cpm)", "setting": "[2]; 20 ug/ml MOG35-55", "result": "~38", "unit": "%"}, {"measurement": "decrease in recall proliferative response to MOG35-55 (cpm)", "setting": "[2]; 100 ug/ml MOG35-55", "result": "~22", "unit": "%"}, {"measurement": "EAE development", "setting": "[2]; [4]", "result": "significant inhibition"}, {"measurement": "EAE severity score (0-6 scale) at plateau", "setting": "[2]; [4]", "result": "approximately 2"}, {"measurement": "circulating lymphocytes", "setting": "[2]; antibody-treated animals", "result": "approximately 10%"}, {"measurement": "demyelination in spinal cord", "setting": "[2]; antibody-treated animals", "result": "less than 1%"}, {"measurement": "spleen CD4+ T cells, of lymphocytes in spleen", "setting": "[2]; antibody-treated animals", "result": "approximately 7.6%"}, {"measurement": "axonal loss", "setting": "[2]; antibody-treated mice", "result": "less than 2%"}, {"measurement": "CD4+CD25+Foxp3+ Treg in spleen", "setting": "[2]; mouse, in vivo", "result": "significant increase"}, {"measurement": "IFNγ secretion by splenocytes upon MOG35-55 stimulation", "setting": "[2]; mouse, in vivo", "result": "lower levels"}, {"measurement": "IL-10 secretion by splenocytes upon MOG35-55 stimulation", "setting": "[2]; mouse, in vivo", "result": "higher levels"}, {"measurement": "IL-17 secretion by splenocytes upon MOG35-55 stimulation", "setting": "[2]; mouse, in vivo", "result": "lower levels"}, {"measurement": "circulating CD4+CD25+Foxp3+ Treg cells", "setting": "[2]; mouse, in vivo", "result": "statistically nonsignificant increase"}, {"measurement": "decrease in spleen CD4+ T cells after antibody treatment", "setting": "[2]; vs control animals", "result": "~35", "unit": "%"}, {"measurement": "decrease in circulating lymphocytes after antibody treatment", "setting": "[2]; vs control animals with EAE", "result": "~26", "unit": "%"}, {"measurement": "decrease in axonal loss after treatment", "setting": "[2]; vs untreated controls with EAE", "result": "~91", "unit": "%"}, {"measurement": "decrease in demyelination after treatment", "setting": "[2]; vs untreated controls with EAE", "result": "~92", "unit": "%"}, {"measurement": "decrease in number of inflammatory cells/mm^2 in spinal cords", "setting": "[2]; vs untreated controls with EAE", "result": "about 85%"}]}]}
